Laboratory results: patent US5686572, “Domains of extracellular region of human platelet derived growth factor receptor polypeptides” (Cor Therapeutics, Inc., dated 1997)

Assays:
PDGF BB [1] = target: T1, PDGF BB (Homo sapiens (Human), UniProt P01127); test: solid-phase plate assay, displacement of bound 125I-PDGF BB by unlabeled PDGF BB
Method: (§1) This fraction was then applied to Sephacryl S-200 HR (Pharmacia) equilibrated in 0.15M ammonium bicarbonate pH 7.9. The fractions containing receptor (3–10 ng/μl) were detected by SDS-PAGE and Western blotting with a polyclonal rabbit antibody, made by standard methods, against a Domain 1 (D1) segment from the receptor external region. These fractions (3–10 ng/μl) were used to coat the microtiter wells as described above. The wells were then drained, rinsed once with 200 μl each of 0.5% gelatin (BioRad, EIA grade), 25 mM Hepes, 100 mM NaCl, pH 7.4, and incubated for 1–2 h at 24° C. with 150 μl of this same solution. The wells were drained and rinsed twice with 0.3% gelatin, 25 mM Hepes, 100 mM NaCl, pH 7.4 (150 μl each). […] The bound radioactivity remaining was solubilized from the wells in 200 μl 1% SDS, 0.5% BSA, and counted in a gamma-counter. The nonspecific binding was determined in the presence of a 150-fold excess of unlabeled PDGF BB (Amgen) and was about 7% of the total bound ^125I-PDGF.
(§2) Using iodinated PDGF-BB, the specific binding of less than 10 pg of ligand can be detected in an assay volume of […]. […] The nonspecific binding, determined in the presence of a […] of cold PDGF BB, was usually only about 5–10% of the total binding.

PDGF BB [2] = target: T1, PDGF BB; test: solid-phase plate assay, 125I-PDGF BB bound after 4 h at 4° C., dissociation in buffer
Method: as §1, §2

PDGF BB [3] = target: T1, PDGF BB; test: competition: soluble receptor fragment against its immobilized form for binding 125I-PDGF BB
Method: as §1, §2

PDGF BB [4] = target: T1, PDGF BB; test: solid-phase plate assay at 4° C., 125I-PDGF BB on the receptor fragment coated on polystyrene wells, Scatchard analysis
Method: as §1, §2

B1: extracellular region fragment of the type B human PDGF receptor (soluble, PΔ1 construct, D1-D2-D3-D4-D5) (receptor)
chain: LVVTPPGPELVLNVSSTFVLTCSGSAPVVWERMSQEPPQEMAKAQDGTFSSVLTLTNLTGLDTGEYFCTHNDSRGLETDERKRLYIFVPDPTVGFLPNDAEELFIFLTEITEITIPCRVTDPQLVVTLHEKKGDVALPVPYDHQRGFSGIFEDRSYICKTTIGDREVDSDAYYVYRLQVSSINVSVNAVQTVVRQGENITLMCIVIGNDVVNFEWTYPRKESGRLVEPVTDFLLDMPYHIRSILHIPSAELEDSGTYTCNVTESVNDHQDEKAINITVVESGYVRLLGEVGTLQFAELHRSRTLQVVFEAYPPPTVLWFKDNRTLGDSSAGEIALSTRNVSETRYVSELTLVRVKVAEAGHYTMRAFHEDAEVQLSFQLQINVPVRVLELSESHPDSGEQTVRCRGRGMPQPNIIWSACRDLKRCPRELPPTLLGNSSEEESQLETNVTYWEEEQEFEVVSTLRLQH
t1/2 of displacement by 150-fold excess of unlabeled PDGF BB (PDGF BB [1]): < 1 h
t1/2 of dissociation in binding buffer (PDGF BB [2]): > 6 h
IC50 (PDGF BB [3]): 5 nM
Kd (PDGF BB [4]): ~1 nM
